According to publication PMC3332085:
Read-outs that look alike come from different tables or passages of the source.

Assays:
Experiment in all cases: SAXS
[1] = biological target: wild type yeast frataxin (Yfh1wt; residues 52-174) (S. cerevisiae) (UniProt Q07540)
[2] = biological target: wild type yeast frataxin (Yfh1wt; residues 52-174) (S. cerevisiae) (UniProt Q07540); remark: listed apart in the source
[3] = biological target: wild type yeast frataxin (Yfh1wt; residues 52-174) (S. cerevisiae) (UniProt Q07540); remark: listed apart in the source

“wild type yeast frataxin (Yfh1wt; residues 52-174) (from UniProt Q07540 52-174) (natural protein)” showed a distribution, hexamer [1] of 13%, a distribution, monomer [1] of 54% and a distribution, trimer [1] of 33%. For the same substance, the distribution, 42-mer [2] was 11%, the distribution, hexamer [2] was 6% and the distribution, monomer [2] was 26%. For the same substance, the distribution, trimer [2] was 57%, the distribution, hexamer [3] was 9% and the distribution, monomer [3] was 67%. It also gave a distribution, trimer [3] of 24% and a stoichiometry N [3] of 2.
